Where “and” joins values, the source holds several entries; their conditions need not be identical. Equal entries are not always repeated.
B1: Fructose-bisphosphate aldolase A, P00883 (parent)
chain: MPHSHPALTPEQKKELSDIAHRIVAPGKGILAADESTGSIAKRLQSIGTENTEENRRFYRQLLLTADDRVNPCIGGVILFHETLYQKADDGRPFPQVIKSKGGVVGIKVDKGVVPLAGTNGETTTQGLDGLSERCAQYKKDGADFAKWRCVLKIGEHTPSALAIMENANVLARYASICQQNGIVPIVEPEILPDGDHDLKRCQYVTEKVLAAVYKALSDHHIYLEGTLLKPNMVTPGHACTQKYSHEEIAMATVTALRRTVPPAVTGVTFLSGGQSEEEASINLNAINKCPLLKPWALTFSYGRALQASALKAWGGKKENLKAAQEEYVKRALANSLACQGKYTPSGQAGAAASESLFISNHAY

Variants of: B1
Conditions: Oryctolagus cuniculus; pH 7.4; Thermal; DSC; sodium phosphate 10 mM; transition: 3; reversible: yes; structure 1ADO; whole UniProt chain shown

| Variant | Tm | change of melting temperature, mutant - wild type (higher = more stable) | unfolding enthalpy (calorimetric) |
| --- | --- | --- | --- |
| MPHSHPALTPEQKKELSDIAHRIVAPGKGILAADESTGSIAKRLQSIGTENTEENRRFYRQLLLTADDRVNPCIGGVILFHETLYQKADDGRPFPQVIKSKGGVVGIKVDKGVVPLAGTNGETTTQGLAGLSERCAQYKKDGADFAKWRCVLKIGEHTPSALAIMENANVLARYASICQQNGIVPIVEPEILPDGDHDLKRCQYVTEKVLAAVYKALSDHHIYLEGTLLKPNMVTPGHACTQKYSHEEIAMATVTALRRTVPPAVTGVTFLSGGQSEEEASINLNAINKCPLLKPWALTFSYGRALQASALKAWGGKKENLKAAQEEYVKRALANSLACQGKYTPSGQAGAAASESLFISNHAY [D129A] | 46.8 °C | -11.9 °C | 71 kcal/mol |
| MPHSHPALTPEQKKELSDIAHRIVAPGKGILAADESTGSIAKRLQSIGTENTEENRRFYRQLLLTADDRVNPCIGGVILFHETLYQKADDGRPFPQVIKSKGGVVGIKVDKGVVPLAGTNGETTTQGLGGLSERCAQYKKDGADFAKWRCVLKIGEHTPSALAIMENANVLARYASICQQNGIVPIVEPEILPDGDHDLKRCQYVTEKVLAAVYKALSDHHIYLEGTLLKPNMVTPGHACTQKYSHEEIAMATVTALRRTVPPAVTGVTFLSGGQSEEEASINLNAINKCPLLKPWALTFSYGRALQASALKAWGGKKENLKAAQEEYVKRALANSLACQGKYTPSGQAGAAASESLFISNHAY [D129G] | 44 °C and 46 °C | -11.7 °C and -12.7 °C | 67 kcal/mol and 73 kcal/mol |
| MPHSHPALTPEQKKELSDIAHRIVAPGKGILAADESTGSIAKRLQSIGTENTEENRRFYRQLLLTADDRVNPCIGGVILFHETLYQKADDGRPFPQVIKSKGGVVGIKVDKGVVPLAGTNGETTTQGLNGLSERCAQYKKDGADFAKWRCVLKIGEHTPSALAIMENANVLARYASICQQNGIVPIVEPEILPDGDHDLKRCQYVTEKVLAAVYKALSDHHIYLEGTLLKPNMVTPGHACTQKYSHEEIAMATVTALRRTVPPAVTGVTFLSGGQSEEEASINLNAINKCPLLKPWALTFSYGRALQASALKAWGGKKENLKAAQEEYVKRALANSLACQGKYTPSGQAGAAASESLFISNHAY [D129N] | 45.6 °C and 47 °C | -10.1 °C and -11.7 °C | 80 kcal/mol and 83 kcal/mol |
| MPHSHPALTPEQKKELSDIAHRIVAPGKGILAADESTGSIAKRLQSIGTENTEENRRFYRQLLLTADDRVNPCIGGVILFHETLYQKADDGRPFPQVIKSKGGVVGIKVDKGVVPLAGTNGETTTQGLVGLSERCAQYKKDGADFAKWRCVLKIGEHTPSALAIMENANVLARYASICQQNGIVPIVEPEILPDGDHDLKRCQYVTEKVLAAVYKALSDHHIYLEGTLLKPNMVTPGHACTQKYSHEEIAMATVTALRRTVPPAVTGVTFLSGGQSEEEASINLNAINKCPLLKPWALTFSYGRALQASALKAWGGKKENLKAAQEEYVKRALANSLACQGKYTPSGQAGAAASESLFISNHAY [D129V] | 43.9 °C and 46.5 °C | -11.8 °C and -12.2 °C | 91 kcal/mol and 78 kcal/mol |
| MPHSHPALTPEQKKELSDIAHRIVAPGKGILAADESTGSIAKRLQSIGTENTEENRRFYRQLLLTADDRVNPCIGGVILFHETLYQKADDGRPFPQVIKSKGGVVGIKVDKGVVPLAGTNGETTTQGLQGLSERCAQYKKDGADFAKWRCVLKIGEHTPSALAIMENANVLARYASICQQNGIVPIVEPEILPDGDHDLKRCQYVTEKVLAAVYKALSDHHIYLEGTLLKPNMVTPGHACTQKYSHEEIAMATVTALRRTVPPAVTGVTFLSGGQSEEEASINLNAINKCPLLKPWALTFSYGRALQASALKAWGGKKENLKAAQEEYVKRALANSLACQGKYTPSGQAGAAASESLFISNHAY [D129Q] | 45.9 °C and 47.1 °C | -9.8 °C and -11.6 °C | 67 kcal/mol and 77 kcal/mol |

Reference: FireProtDB (doi:10.1002/pro.5560030904)
